B1: Dynamin-1-like protein (Mus musculus), Q8K1M6-3 (parent)
chain: MEALIPVINKLQDVFNTVGADIIQLPQIVVVGTQSSGKSSVLESLVGRDLLPRGTGVVTRRPLILQLVHVSPEDKRKTTGEENGVEAEEWGKFLHTKNKLYTDFDEIRQEIENETERISGNNKGVSPEPIHLKVFSPNVVNLTLVDLPGMTKVPVGDQPKDIELQIRELILRFISNPNSIILAVTAANTDMATSEALKISREVDPDGRRTLAVITKLDLMDAGTDAMDVLMGRVIPVKLGIIGVVNRSQLDINNKKSVTDSIRDEYAFLQKKYPSLANRNGTKYLARTLNRLLMHHIRDCLPELKTRINVLAAQYQSLLNSYGEPVDDKSATLLQLITKFATEYCNTIEGTAKYIETSELCGGARICYIFHETFGRTLESVDPLGGLNTIDILTAIRNATGPRPALFVPEVSFELLVKRQIKRLEEPSLRCVELVHEEMQRIIQHCSNYSTQELLRFPKLHDAIVEVVTCLLRKRLPVTNEMVHNLVAIELAYINTKHPDFADACGLMNNNIEEQRRNRLARELPSAGSRDKVPSAGGGIGDGGQEPTTGNWRGMLKTSKAEELLAEEKSKPIPIMPASPQKGHAVNLLDVPVPVARKLSAREQRDCEVIERLIKSYFLIVRKNIQDSVPKAVMHFLVNHVKDTLQSELVGQLYKSSLLDDLLTESEDMAQRRKEAADMLKALQGASQIIAEIRETHLW

What was measured:
arp3_human ACTR3, P61158 = variants of: B1; conditions: with arp3_human ACTR3, P61158
cof1_human CFL1, P23528 = variants of: B1; conditions: with cof1_human CFL1, P23528
Sequence of cof1_human CFL1, P23528 (P23528 whole entry): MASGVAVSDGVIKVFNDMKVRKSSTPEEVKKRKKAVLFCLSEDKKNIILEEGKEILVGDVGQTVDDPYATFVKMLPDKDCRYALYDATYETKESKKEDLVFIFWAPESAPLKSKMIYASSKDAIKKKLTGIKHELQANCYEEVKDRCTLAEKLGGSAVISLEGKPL

Row | Variant | effect of a mutation on the interaction (arp3_human ACTR3, P61158) | effect of a mutation on the interaction (cof1_human CFL1, P23528)
1 | S600A | decreasing interaction strength | decreasing interaction strength
2 | S600D | increasing interaction strength | increasing interaction strength
